# According to patent US20080306212A1 (Biogen, published 2008):
# Biological target: T1, c-Ret (RET receptor tyrosine kinase) on NB41A3-mRL3 cells (UniProt P35546 29-1115, limits assumed)
# Assay: cell-based or functional assay
# T1 sequence (P35546 29-1115 limits assumed): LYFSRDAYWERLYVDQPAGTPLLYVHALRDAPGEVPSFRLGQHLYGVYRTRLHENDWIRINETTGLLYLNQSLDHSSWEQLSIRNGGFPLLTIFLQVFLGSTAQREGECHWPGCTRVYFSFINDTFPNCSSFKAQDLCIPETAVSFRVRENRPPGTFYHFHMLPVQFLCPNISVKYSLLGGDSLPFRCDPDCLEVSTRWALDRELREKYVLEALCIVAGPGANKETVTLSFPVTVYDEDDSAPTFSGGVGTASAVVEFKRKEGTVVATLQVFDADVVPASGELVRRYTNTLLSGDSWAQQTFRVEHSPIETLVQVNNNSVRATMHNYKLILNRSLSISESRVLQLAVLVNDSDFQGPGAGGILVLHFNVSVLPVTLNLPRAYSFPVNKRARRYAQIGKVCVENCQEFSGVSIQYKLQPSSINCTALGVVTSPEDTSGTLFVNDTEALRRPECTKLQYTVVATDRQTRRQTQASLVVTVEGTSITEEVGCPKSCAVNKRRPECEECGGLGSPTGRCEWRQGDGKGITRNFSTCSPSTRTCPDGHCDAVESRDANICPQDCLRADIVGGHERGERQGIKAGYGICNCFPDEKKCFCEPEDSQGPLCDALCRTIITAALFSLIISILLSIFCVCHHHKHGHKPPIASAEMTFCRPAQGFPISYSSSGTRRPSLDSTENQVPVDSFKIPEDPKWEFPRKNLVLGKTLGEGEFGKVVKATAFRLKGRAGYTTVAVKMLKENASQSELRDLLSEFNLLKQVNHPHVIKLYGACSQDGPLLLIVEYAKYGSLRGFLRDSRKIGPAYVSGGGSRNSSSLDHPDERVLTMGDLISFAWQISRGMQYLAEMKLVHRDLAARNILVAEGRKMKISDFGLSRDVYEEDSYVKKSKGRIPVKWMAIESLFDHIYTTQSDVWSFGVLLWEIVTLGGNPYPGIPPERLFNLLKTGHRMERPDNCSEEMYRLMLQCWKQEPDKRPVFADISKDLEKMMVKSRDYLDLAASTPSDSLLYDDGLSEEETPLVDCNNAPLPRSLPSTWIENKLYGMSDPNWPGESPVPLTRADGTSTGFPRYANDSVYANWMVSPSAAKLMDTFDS
KIRA:~ EC50,KIRA:~ Max Efficacy vs WT,Binder
~0.7 nM,~115%,"3 × 10 kDa PEG-WT/N95K-NBN106 (ligand, 10 kDa PEG on the amino terminus and on Lys95 (Table 8, for the dimer: 1, 1, 95); 10 kDa PEG on the amino terminus (Table 8, for the dimer: 1, 1, 95)) chain 1: ARATDARGCRLRSQLVPVSALGLGHSSDELIRFRFCSGSCRRARSPHDLSLASLLGAGALRSPPGSRPISQPCCRPTRYEAVSFMDVNSTWRTVDHLSATACGCLG chain 2: ARATDARGCRLRSQLVPVSALGLGHSSDELIRFRFCSGSCRRARSPHDLSLASLLGAGALRSPPGSRPISQPCCRPTRYEAVSFMDVKSTWRTVDHLSATACGCLG"
~1 nM,~80%,"4 × 5 kDa PEG NBN106-N95K (ligand, 5 kDa PEG on the amino terminus and on Lys95 of each chain (Table 8: 1, 1, 95, 95)) ARATDARGCRLRSQLVPVSALGLGHSSDELIRFRFCSGSCRRARSPHDLSLASLLGAGALRSPPGSRPISQPCCRPTRYEAVSFMDVKSTWRTVDHLSATACGCLG"
~11 nM,> 80%,"4 × 10 kDa PEG NBN106-N95K (ligand, 10 kDa PEG on the amino terminus and on Lys95 of each chain (Table 8: 1, 1, 95, 95)) ARATDARGCRLRSQLVPVSALGLGHSSDELIRFRFCSGSCRRARSPHDLSLASLLGAGALRSPPGSRPISQPCCRPTRYEAVSFMDVKSTWRTVDHLSATACGCLG"
~1.6 nM,~90%,"3(,4) × 10 kDa PEG NBN106-N95K (ligand, 10 kDa SPA-PEG at the amino termini and Lys95, average 3.3 PEG moieties per dimer (Table 8: 1, 1, 95 (,95)); mixture of 2, 3 and 4 PEG adducts) ARATDARGCRLRSQLVPVSALGLGHSSDELIRFRFCSGSCRRARSPHDLSLASLLGAGALRSPPGSRPISQPCCRPTRYEAVSFMDVKSTWRTVDHLSATACGCLG"
~0.8 nM,~100%,"3 × 10 kDa PEG NBN106-N95K (ligand, three 10 kDa PEG per dimer: both amino termini and one Lys95 (Table 8: 1, 1, 95)) ARATDARGCRLRSQLVPVSALGLGHSSDELIRFRFCSGSCRRARSPHDLSLASLLGAGALRSPPGSRPISQPCCRPTRYEAVSFMDVKSTWRTVDHLSATACGCLG"
~0.2 nM,~72%,"2 × 10 kDa PEG-NBN (ligand, 10 kDa PEG on the amino-terminal amino acid of each chain (Table 8: 1, 1)) AGTRSSRARATDARGCRLRSQLVPVSALGLGHSSDELIRFRFCSGSCRRARSPHDLSLASLLGAGALRSPPGSRPISQPCCRPTRYEAVSFMDVNSTWRTVDHLSATACGCLG"
~0.2 nM,~105%,"2 × 5 kDa PEG-NBN (ligand, 5 kDa PEG on the amino-terminal amino acid of each chain (Table 8: PEGylated amino acids 1, 1)) AGTRSSRARATDARGCRLRSQLVPVSALGLGHSSDELIRFRFCSGSCRRARSPHDLSLASLLGAGALRSPPGSRPISQPCCRPTRYEAVSFMDVNSTWRTVDHLSATACGCLG"
~0.2 nM,~83%,"1 × 20 kDa Branched PEG-NBN (ligand, one 20 kDa branched PEG on the amino-terminal amino acid of one of the two chains (Table 8: 1)) AGTRSSRARATDARGCRLRSQLVPVSALGLGHSSDELIRFRFCSGSCRRARSPHDLSLASLLGAGALRSPPGSRPISQPCCRPTRYEAVSFMDVNSTWRTVDHLSATACGCLG"
~0.6 nM,~80%,"2 × 20 kDa PEG-NBN (ligand, 20 kDa PEG on the amino-terminal amino acid of each chain (Table 8: 1, 1)) AGTRSSRARATDARGCRLRSQLVPVSALGLGHSSDELIRFRFCSGSCRRARSPHDLSLASLLGAGALRSPPGSRPISQPCCRPTRYEAVSFMDVNSTWRTVDHLSATACGCLG"
,~100%,wild-type rat neublastin NBN113 (E. coli derived) (ligand) AGTRSSRARATDARGCRLRSQLVPVSALGLGHSSDELIRFRFCSGSCRRARSPHDLSLASLLGAGALRSPPGSRPISQPCCRPTRYEAVSFMDVNSTWRTVDHLSATACGCLG

# Biological target: c-Ret (RET receptor tyrosine kinase) on NB41A3-mRL3 cells (UniProt P35546)
# Assay: cell-based or functional assay
# c-Ret (RET receptor tyrosine kinase) on NB41A3-mRL3 cells (UniProt P35546), sequence (P35546 29-1115 limits assumed): as the sequence (P35546 29-1115 limits assumed) above
KIRA:~ EC50,KIRA:~ Max Efficacy vs WT,Binder
0.3 nM,110%,"1 × 20 kDa PEG-NBN104 (CHO) (ligand, one 20 kDa PEG on the amino-terminal amino acid of one chain (Table 8: 1); glycosylated at amino acid 95 of each chain (95, 95)) AAGARGCRLRSQLVPVRALGLGHRSDELVRFRFCSGSCRRARSPHDLSLASLLGAGALRPPPGSRPVSQPCCRPTRYEAVSFMDVNSTWRTVDRLSATACGCLG"
1 nM,105%,"2 × 20 kDa PEG-NBN104 (CHO) (ligand, 20 kDa PEG on the amino-terminal amino acid of each chain (Table 8: 1, 1); glycosylated at amino acid 95 of each chain (95, 95)) AAGARGCRLRSQLVPVRALGLGHRSDELVRFRFCSGSCRRARSPHDLSLASLLGAGALRPPPGSRPVSQPCCRPTRYEAVSFMDVNSTWRTVDRLSATACGCLG"
0.7 nM,90%,"NBN104 (CHO) (ligand, glycosylated at amino acid 95 of each chain (Table 8: 95, 95; numbering of SEQ ID NO:1)) AAGARGCRLRSQLVPVRALGLGHRSDELVRFRFCSGSCRRARSPHDLSLASLLGAGALRPPPGSRPVSQPCCRPTRYEAVSFMDVNSTWRTVDRLSATACGCLG"

# Biological target: T1, c-Ret (RET receptor tyrosine kinase) on …
# Assay: cell-based or functional assay
# Remark: another data set of the same source
row,potency in the KIRA ELISA relative to wild-type NBN113,Binder
1,~10 fold less potent,"4 × 10 kDa PEG NBN106-N95K (ligand, 10 kDa PEG on the amino terminus and on Lys95 of each chain (Table 8: 1, 1, 95, 95)) ARATDARGCRLRSQLVPVSALGLGHSSDELIRFRFCSGSCRRARSPHDLSLASLLGAGALRSPPGSRPISQPCCRPTRYEAVSFMDVKSTWRTVDHLSATACGCLG"
